Measurements: article PMC6085347, “Structural basis for reactivating the mutant TERT promoter by cooperative binding of p52 and ETS1” (Nature Communications, 2018)

How the values were obtained:
p52-RHD;ETS1 331-441 = biological target: T1, p52-RHD;ETS1 331-441 (human;human, UniProt Q00653;P14921 35-329;331-441, |); assay: X-ray crystallography; ETS1 contacts the DNA; p52-DBSD disordered and p52-DSD bound to ETS1; ITC: 25 mM Tris-HCl pH 7.5, 200 mM NaCl, 3 mM TCEP, 8 °C. EMSA: 20 mM Tris-HCl pH 7.5, 150 mM NaCl, 4 °C, 1 h, 4-16% native PAGE; details: protein: recombinant;recombinant; tags: GST removed (PreScission, pGEX-6P-1);GST removed (PreScission, pGEX-6P-1); chain copies: 2;1; 5' overhang 1 nt at each end, 15 bp
T1 sequence 1: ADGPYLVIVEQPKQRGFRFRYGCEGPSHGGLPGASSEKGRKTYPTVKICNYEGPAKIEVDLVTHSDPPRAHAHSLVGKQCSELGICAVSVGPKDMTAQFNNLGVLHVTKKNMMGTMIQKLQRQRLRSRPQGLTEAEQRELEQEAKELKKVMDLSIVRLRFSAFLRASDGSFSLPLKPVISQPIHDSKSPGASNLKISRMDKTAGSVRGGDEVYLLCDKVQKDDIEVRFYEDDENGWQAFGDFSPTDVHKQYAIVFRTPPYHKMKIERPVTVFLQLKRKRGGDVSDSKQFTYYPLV
T1 sequence 2: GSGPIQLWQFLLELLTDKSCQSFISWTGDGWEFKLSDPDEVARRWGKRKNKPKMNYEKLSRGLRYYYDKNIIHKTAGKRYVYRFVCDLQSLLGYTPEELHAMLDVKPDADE

ETS1 296-441;p52-RHD = biological target: T2, ETS1 296-441;p52-RHD (human;human, UniProt P14921;Q00653 296-441;35-329, |); assay: ITC; 100 uM p52-RHD in cell; no enhancement over p52-DSD; ITC: 25 mM Tris-HCl pH 7.5, 200 mM NaCl, 3 mM TCEP, 8 °C. EMSA: 20 mM Tris-HCl pH 7.5, 150 mM NaCl, 4 °C, 1 h, 4-16% native PAGE; details: protein: recombinant;recombinant; tags: GST removed (PreScission, pGEX-6P-1);GST removed (PreScission, pGEX-6P-1); copies: 1;2; 5' overhang 1 nt at each end, 25 bp
T2 sequence 1: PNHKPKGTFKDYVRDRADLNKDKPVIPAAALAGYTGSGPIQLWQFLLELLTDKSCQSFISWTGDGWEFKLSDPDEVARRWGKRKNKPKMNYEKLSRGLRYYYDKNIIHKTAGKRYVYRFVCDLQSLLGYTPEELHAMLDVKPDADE
T2 sequence 2: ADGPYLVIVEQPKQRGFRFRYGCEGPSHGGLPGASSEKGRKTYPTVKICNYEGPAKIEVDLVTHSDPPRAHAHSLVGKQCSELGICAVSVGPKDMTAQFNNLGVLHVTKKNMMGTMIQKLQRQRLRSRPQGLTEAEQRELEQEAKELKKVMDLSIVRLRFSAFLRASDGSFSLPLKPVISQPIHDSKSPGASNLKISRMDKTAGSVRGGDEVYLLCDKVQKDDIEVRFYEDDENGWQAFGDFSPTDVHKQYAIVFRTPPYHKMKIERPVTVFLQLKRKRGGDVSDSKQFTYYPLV

ETS1 296-441;p52-DSD [1] = biological target: T3, ETS1 296-441;p52-DSD (human;human, UniProt P14921;Q00653 296-441;226-328, |); assay: ITC; 100 uM p52-DSD in cell; greater affinity than ETS1 alone; ITC: 25 mM Tris-HCl pH 7.5, 200 mM NaCl, 3 mM TCEP, 8 °C. EMSA: 20 mM Tris-HCl pH 7.5, 150 mM NaCl, 4 °C, 1 h, 4-16% native PAGE; details: protein: recombinant;recombinant; tags: GST removed (PreScission, pGEX-6P-1);GST removed (PreScission, pGEX-6P-1); copies: 1;2; 5' overhang 1 nt at each end, 25 bp
T3 sequence 1: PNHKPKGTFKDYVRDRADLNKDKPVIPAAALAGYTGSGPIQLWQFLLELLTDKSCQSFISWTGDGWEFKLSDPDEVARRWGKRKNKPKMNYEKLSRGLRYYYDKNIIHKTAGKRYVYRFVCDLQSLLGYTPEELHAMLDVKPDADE
T3 sequence 2: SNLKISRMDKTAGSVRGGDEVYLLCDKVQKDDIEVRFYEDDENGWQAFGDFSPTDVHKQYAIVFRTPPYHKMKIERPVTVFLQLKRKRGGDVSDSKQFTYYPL

ETS1 296-441;p52-DSD [2] = biological target: T3, ETS1 296-441;p52-DSD; assay: ITC; 100 uM p52-DSD in cell; flanks make no contribution to affinity; ITC: 25 mM Tris-HCl pH 7.5, 200 mM NaCl, 3 mM TCEP, 8 °C. EMSA: 20 mM Tris-HCl pH 7.5, 150 mM NaCl, 4 °C, 1 h, 4-16% native PAGE; details: protein: recombinant;recombinant; tags: GST removed (PreScission, pGEX-6P-1);GST removed (PreScission, pGEX-6P-1); copies: 1;2; blunt
ETS1_(331–441), P14921 = biological target: T4, ETS1_(331–441), P14921; assay: ITC
T4 chain: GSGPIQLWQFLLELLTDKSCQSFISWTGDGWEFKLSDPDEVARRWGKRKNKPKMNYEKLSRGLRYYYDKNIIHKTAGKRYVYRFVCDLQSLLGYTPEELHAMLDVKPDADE

[3] = biological target: T5, Flag-tagged ETS1_(331–441), P14921; assay: FLAG pull-down, band densitometry; details: chain shown with the change;; parent: est. 1.0; read off a plot
T5 chain: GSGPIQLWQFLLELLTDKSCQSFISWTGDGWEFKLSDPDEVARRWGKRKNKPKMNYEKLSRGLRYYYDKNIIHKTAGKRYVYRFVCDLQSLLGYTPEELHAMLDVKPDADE

ETS1_(331–441) [4] = biological target: T6, ETS1_(331–441) (human, UniProt P14921 331-441); assay: ITC; 8 °C; 25 mM Tris-HCl pH 7.5, 200 mM NaCl, 3 mM TCEP; 20 μM ETS1 fragment in the cell titrated with 200 μM p52-RHD in the syringe; single-site model
T6 chain: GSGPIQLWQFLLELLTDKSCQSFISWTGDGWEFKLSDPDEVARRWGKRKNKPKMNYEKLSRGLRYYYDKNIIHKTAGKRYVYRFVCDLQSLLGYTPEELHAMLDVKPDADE

[5] = biological target: the molecule itself; assay: cross-linking + native gel or EMSA; cysteine mutants mixed at a molar ratio of 1:2, DTT removed, disulfide cross-linking with 30 µM CuCl2 and 100 µM phenanthroline for 1 h at 25 °C; 4–16% gradient blue native PAGE; reversed with 20 mM DTT
ETS1_(296–441) [6] = biological target: T7, ETS1_(296–441) (human, UniProt P14921 296-441); assay: ITC
T7 chain: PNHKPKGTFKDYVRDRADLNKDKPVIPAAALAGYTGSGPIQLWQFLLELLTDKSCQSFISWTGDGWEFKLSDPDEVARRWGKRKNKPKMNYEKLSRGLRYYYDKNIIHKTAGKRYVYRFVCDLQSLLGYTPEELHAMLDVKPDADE

ETS1_(296–441) [7] = biological target: T7, ETS1_(296–441); assay: ITC
[8] = biological target: the molecule itself; assay: crystal structure; p52-RHD, ETS1_(331–441) and a 15 bp -146C>T TERT promoter DNA mixed 1:1:1; crystals at 18 °C in 100 mM HEPES pH 7.0, 2.0 M ammonium sulfate
ETS1_(296–441) [9] = biological target: T7, ETS1_(296–441); assay: ITC; 8 °C; 25 mM Tris-HCl pH 7.5, 200 mM NaCl, 3 mM TCEP; 20 μM ETS1 fragment in the cell titrated with 200 μM p52-RHD in the syringe; single-site model
ETS1_(331–441) [10] = biological target: T6, ETS1_(331–441); assay: ITC

B1: 15 bp -146C>T TERT promoter DNA (dsDNA)
DNA 1: GCCCTTCCGGGTCCCC
DNA 2: CGGGGACCCGGAAGGG
binding result (p52-RHD;ETS1 331-441): binds

B2: 25 bp -146C>T TERT promoter DNA (dsDNA)
DNA 1: GTCCCGACCCCTTCCGGGTCCCCGGC
DNA 2: CGCCGGGGACCCGGAAGGGGTCGGGA
binding result (ETS1 296-441;p52-RHD): binds | binding result (ETS1 296-441;p52-DSD [1]): binds

B3: 10 bp -146C>T TERT promoter DNA (dsDNA)
DNA 1: CCCTTCCGGG
DNA 2: CCCGGAAGGG
binding result (ETS1 296-441;p52-DSD [2]): binds

B4: p52-RHD (residues 35–329), Q00653 R241A; M297A; K298A (protein)
chain: ADGPYLVIVEQPKQRGFRFRYGCEGPSHGGLPGASSEKGRKTYPTVKICNYEGPAKIEVDLVTHSDPPRAHAHSLVGKQCSELGICAVSVGPKDMTAQFNNLGVLHVTKKNMMGTMIQKLQRQRLRSRPQGLTEAEQRELEQEAKELKKVMDLSIVRLRFSAFLRASDGSFSLPLKPVISQPIHDSKSPGASNLKISRMDKTAGSVAGGDEVYLLCDKVQKDDIEVRFYEDDENGWQAFGDFSPTDVHKQYAIVFRTPPYHKAAIERPVTVFLQLKRKRGGDVSDSKQFTYYPLV
Kd (ETS1_(331–441), P14921; chain shown with the change): 33.2 µM | Ka (ETS1_(331–441), P14921; chain shown with the change;, parent: 1.48E5 ± 1.07E4): 30100 M⁻¹ | ratio to parent [3]: 0.26

B5: p52-RHD RMK>A (domain or fragment)
chain: ADGPYLVIVEQPKQRGFRFRYGCEGPSHGGLPGASSEKGRKTYPTVKICNYEGPAKIEVDLVTHSDPPRAHAHSLVGKQCSELGICAVSVGPKDMTAQFNNLGVLHVTKKNMMGTMIQKLQRQRLRSRPQGLTEAEQRELEQEAKELKKVMDLSIVRLRFSAFLRASDGSFSLPLKPVISQPIHDSKSPGASNLKISRMDKTAGSVAGGDEVYLLCDKVQKDDIEVRFYEDDENGWQAFGDFSPTDVHKQYAIVFRTPPYHKAAIERPVTVFLQLKRKRGGDVSDSKQFTYYPLV
fold reduction of binding against WT p52 (ETS1_(331–441) [4]): 5 fold

B6: p52-RHD (R241C, C57S, and C83S) (domain or fragment, human, UniProt Q00653 35-329, looked up)
chain: ADGPYLVIVEQPKQRGFRFRYGSEGPSHGGLPGASSEKGRKTYPTVKISNYEGPAKIEVDLVTHSDPPRAHAHSLVGKQCSELGICAVSVGPKDMTAQFNNLGVLHVTKKNMMGTMIQKLQRQRLRSRPQGLTEAEQRELEQEAKELKKVMDLSIVRLRFSAFLRASDGSFSLPLKPVISQPIHDSKSPGASNLKISRMDKTAGSVCGGDEVYLLCDKVQKDDIEVRFYEDDENGWQAFGDFSPTDVHKQYAIVFRTPPYHKMKIERPVTVFLQLKRKRGGDVSDSKQFTYYPLV
modifications: disulfide from Cys241 to Cys343 of ETS1_(331–441) (E343C and C350S) after cross-linking with CuCl2 and phenanthroline
binding result [5]: binds

B7: p52-RHD (residues 35–329), Q00653 M297A (protein)
chain: ADGPYLVIVEQPKQRGFRFRYGCEGPSHGGLPGASSEKGRKTYPTVKICNYEGPAKIEVDLVTHSDPPRAHAHSLVGKQCSELGICAVSVGPKDMTAQFNNLGVLHVTKKNMMGTMIQKLQRQRLRSRPQGLTEAEQRELEQEAKELKKVMDLSIVRLRFSAFLRASDGSFSLPLKPVISQPIHDSKSPGASNLKISRMDKTAGSVRGGDEVYLLCDKVQKDDIEVRFYEDDENGWQAFGDFSPTDVHKQYAIVFRTPPYHKAKIERPVTVFLQLKRKRGGDVSDSKQFTYYPLV
ratio to parent [3]: 0.72

B8: p52-RHD (residues 35–329), Q00653 K298A (protein)
chain: ADGPYLVIVEQPKQRGFRFRYGCEGPSHGGLPGASSEKGRKTYPTVKICNYEGPAKIEVDLVTHSDPPRAHAHSLVGKQCSELGICAVSVGPKDMTAQFNNLGVLHVTKKNMMGTMIQKLQRQRLRSRPQGLTEAEQRELEQEAKELKKVMDLSIVRLRFSAFLRASDGSFSLPLKPVISQPIHDSKSPGASNLKISRMDKTAGSVRGGDEVYLLCDKVQKDDIEVRFYEDDENGWQAFGDFSPTDVHKQYAIVFRTPPYHKMAIERPVTVFLQLKRKRGGDVSDSKQFTYYPLV
ratio to parent [3]: 0.69

B9: p52-RHD (residues 35–329), Q00653 R241A (protein)
chain: ADGPYLVIVEQPKQRGFRFRYGCEGPSHGGLPGASSEKGRKTYPTVKICNYEGPAKIEVDLVTHSDPPRAHAHSLVGKQCSELGICAVSVGPKDMTAQFNNLGVLHVTKKNMMGTMIQKLQRQRLRSRPQGLTEAEQRELEQEAKELKKVMDLSIVRLRFSAFLRASDGSFSLPLKPVISQPIHDSKSPGASNLKISRMDKTAGSVAGGDEVYLLCDKVQKDDIEVRFYEDDENGWQAFGDFSPTDVHKQYAIVFRTPPYHKMKIERPVTVFLQLKRKRGGDVSDSKQFTYYPLV
ratio to parent [3]: 0.51

B10: p52-RHD (residues 35–329) (domain or fragment, human, UniProt Q00653 35-329, looked up)
chain: ADGPYLVIVEQPKQRGFRFRYGCEGPSHGGLPGASSEKGRKTYPTVKICNYEGPAKIEVDLVTHSDPPRAHAHSLVGKQCSELGICAVSVGPKDMTAQFNNLGVLHVTKKNMMGTMIQKLQRQRLRSRPQGLTEAEQRELEQEAKELKKVMDLSIVRLRFSAFLRASDGSFSLPLKPVISQPIHDSKSPGASNLKISRMDKTAGSVRGGDEVYLLCDKVQKDDIEVRFYEDDENGWQAFGDFSPTDVHKQYAIVFRTPPYHKMKIERPVTVFLQLKRKRGGDVSDSKQFTYYPLV
notes: In the crystal only residues 226-328 (p52-DSD) are ordered; two p52-DSD form a homodimer through a crystallographic 2-fold axis; also called WT p52
Kd (ETS1_(296–441) [6]): 19.1 µM | Ka (ETS1_(296–441) [7]): 52400 M⁻¹ | binding result [8]: binds | Kd (ETS1_(331–441) [4]): 6.76 µM | fold reduction of binding against ETS1 (331–441) (ETS1_(296–441) [9]): 3 fold | Ka (ETS1_(331–441) [10]): 148000 M⁻¹
